How the values were obtained:
Experiment in all cases: SPR
[1] = molecular target: Z_(VEGFR2_22)-(S4G)4-ABD035-(S4G)4-Z_(VEGFR2_40)
[2] = molecular target: Z_(VEGFR2_40)-(S4G)4-ABD035-(S4G)4-Z_(VEGFR2_22)
[3] = molecular target: Z_(VEGFR2_40)-(S4G)4-ABD035-(S4G)4-Z_(VEGFR2_40)

murine VEGFR2 (Sino Biological) (from UniProt P35918 20-762) (receptor)
koff [1]: 0.00014 s⁻¹ | koff [2]: 0.00018 s⁻¹ | koff [3]: 0.00079 s⁻¹

— article PMC4268634
